The supplement of paper PMC10567573
± gives the standard deviation.

Experiment: protein stability index of a GFP-peptide fusion (GPS, HEK-293T) (PSI 1-6); higher = more stable
[1] = treatment: DMSO, c terminus: a fixed tail appended
[2] = treatment: MLN4924 1 uM, 8 h, c terminus: a fixed tail appended
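Also: 24-mer peptide tiles fused after GFP, lentivirally expressed, FACS-sorted into six equal bins by GFP/DsRed ratio, decoded by Illumina sequencing, PSI is the read-weighted mean bin number.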

Row | Sequence | protein stability index [1] | protein stability index [2] | protein stability index (treatment: DMSO, c terminus: native) | protein stability index (treatment: MLN4924 1 uM, 8 h, c terminus: native)
1 | VKGLFKSENCPKVISCEFAHNSNW [LARP4] | 2.17 ± 0.24 | 2.4 ± 0.24 |  | 
2 | VKWLSFHSGYDFGYLIKILTNSNL [CNOT7] | 2.58 ± 0.21 | 2.86 ± 0.69 |  | 
3 | VLALGLRTDVGITHQHWQQFEPQL [RSAD1] | 2.23 ± 0.39 | 2.35 ± 0.21 |  | 
4 | VLELHHSKLDTTKALNLLPANTQI [VPS39] | 3.03 ± 0.14 | 3.12 ± 0.15 |  | 
5 | VLLHGPPGTGKTSLCKALAQKLTI [TRIP13] | 2.58 ± 0.6 | 2.31 ± 0.53 |  | 
6 | VLNEEGICTQKCALNWTDIPVAME [VPS39] | 3.43 ± 0.18 | 3.39 ± 0.28 |  | 
7 | VMLKRIHSLYRRTGASFQKAQQEF [SCAMP3] | 2.49 ± 0.35 | 2.68 ± 0.46 |  | 
8 | VNLQVATYSKFQPQSPDFLDITNP [UFD1] | 2.53 ± 0.23 | 2.57 ± 0.27 |  | 
9 | VNRRISIVGFGLYGSIHGPTDYQV [BTBD1] | 2.65 ± 0.77 | 2.45 ± 1.1 |  | 
10 | VPAPQPPVTKPLFPSAGQAQAAVQ [ZNF207] | 4.39 ± 0.41 | 4.59 ± 0.18 |  | 
11 | VPSLNAALMHTLQRHRDILQVIYW [GOSR1] | 2.23 ± 0.55 | 2.4 ± 0.41 |  | 
12 | VQEQQKQLQDQDQKLLEQTQIIGE [FBXO28] | 5.43 ± 0.28 | 5.36 ± 0.09 |  | 
13 | VQPMDRLPYQHFSAHFTSGPLVPR [TBX5] | 2.88 ± 0.27 | 2.88 ± 0.33 |  | 
14 | VRDSDDNSPLHIAALNNHPDIMNL [FEM1C] | 4.26 ± 0.24 | 4.42 ± 0.2 |  | 
15 | VRHEGTRTLWSGLPATLVMTVPAT [SLC25A39] | 2.33 ± 0.18 | 2.27 ± 0.13 |  | 
16 | VRHLEEENRGIVVLGINRAYGKNS [AUH] | 3.15 ± 0.36 | 3.31 ± 0.22 |  | 
17 | VRNQQSLAVSNMGARSKGQCPEPP [PTPN9] | 4.3 ± 0.11 | 4.21 ± 0.39 |  | 
18 | VSAQRERPRRRDGPEHATRLNGTA [DVL3] | 4.7 ± 0.17 | 4.81 ± 0.21 |  | 
19 | VSDITDLELLDKIERSKIVSTMRC [PPEF2] | 3.69 ± 0.27 | 3.52 ± 0.23 |  | 
20 | VSEWASKAKANGITMYAVGVGKAI [MATN2] | 2.33 ± 0.3 | 2.36 ± 0.2 |  | 
21 | VSGSHFVGVDGVRAFLQTYSHEVS [PCDHGA10] | 2.49 ± 0.27 | 2.24 ± 0.24 |  | 
22 | VSNTRLIAAATSVLKTRFSYAFPK [CCNC] | 2.24 ± 0.44 | 1.96 ± 0.34 |  | 
23 | VSPGGVKLEISTKEVPVVHTETKT [EPB41L3] | 4.88 ± 0.29 | 5 ± 0.3 |  | 
24 | VTGHTNIVDFLTHHAQTSKTERIN [FEM1C] | 3.45 ± 0.11 | 3.54 ± 0.19 |  | 
25 | VTLELSQLSMLPHLADLVSYSIQK [VDR] | 2.86 ± 0.52 | 2.91 ± 0.26 |  | 

Row | Sequence | protein stability index [1] | protein stability index [2] | protein stability index (treatment: DMSO, c terminus: native) | protein stability index (treatment: MLN4924 1 uM, 8 h, c terminus: native)
26 | VVLCFSIANPNSLHHVKTMWYPEI [RHOBTB2] | 3.23 ± 0.42 | 3.16 ± 0.21 |  | 
27 | VYKSLLLLAYLIRNGSERVVTSAR [CLINT1] | 2.57 ± 0.51 | 2.59 ± 0.39 |  | 
28 | WKALSEFALQSDLDQPAFQQLVSF [ISL2] | 2.21 ± 0.14 | 2.31 ± 0.37 |  | 
29 | WKEGRPRVEESGSKKEGKRQGPKE [PBXIP1] | 5.28 ± 0.46 | 5.24 ± 0.12 |  | 
30 | WLPQQNAAYFLLSTNDKTVKLWKV [PPP2R2B] | 2.53 ± 0.63 | 2.6 ± 0.8 |  | 
31 | WSRLEEFDVFSPKQDLVPGSPDDS [DLC1] | 4.45 ± 0.27 | 4.87 ± 0.38 |  | 
32 | WTNRLCHQEMGSKKTVTQEDRGW [SPAG8] |  |  | 3.08 ± 0.64 | 2.79 ± 0.41
33 | WTPLHLACYFGHRQVVQDLLKAGA [OSBPL1A] | 2.61 ± 0.6 | 2.64 ± 0.48 |  | 
34 | YAGNLHESGVHGALLALDENFDHN [PPFIA4] | 3.26 ± 0.51 | 3.7 ± 0.73 |  | 
35 | YECNHCGKGFRHSSSLAQHQRKHA [ZNF8] | 5.08 ± 0.32 | 5.12 ± 0.28 |  | 
36 | YEMTDLTNNKVYAAKIIPHSRVAK [PLK2] | 3.78 ± 0.092 | 4.05 ± 0.28 |  | 
37 | YESSADIAGDEGTQIPADEDTQTD [TAF7L] | 5.61 ± 0.24 | 5.53 ± 0.24 |  | 
38 | YEWARDHRAHHKFSETHADPHNSR [SCD] | 3.96 ± 0.28 | 4.12 ± 0.18 |  | 
39 | YFALRKILKQLIADVTLDPETAHP [TRIM39] | 4.09 ± 0.2 | 4.34 ± 0.21 |  | 
40 | YKGELFDKTPVLLTDYPVDLDEIA [MYORG] | 3.73 ± 0.28 | 3.75 ± 0.16 |  | 
41 | YMRYSRKVWDQVKASNPDLKLWEI [SMARCE1] | 2.18 ± 0.73 | 1.95 ± 0.066 |  | 
42 | YPVTIGGKIVGSLCAIAGVLTIAL [KCNA1] | 2.35 ± 0.21 | 2.23 ± 0.16 |  | 
43 | YSCQSKEILRYMKEFTLLLSAANV [P2RY14] | 2.4 ± 0.45 | 2.26 ± 0.31 |  | 
44 | YSLMKRQMMSATAQNREPESVEQL [SNX8] | 4.37 ± 0.38 | 4.48 ± 0.19 |  | 
45 | YSLVTHIPAGARDIQIVERKKSAD [ADAMTSL2] | 4.37 ± 0.22 | 4.67 ± 0.41 |  | 
46 | YSSQLSQVQSLITNVESQLAEIRS [KRT33B] | 3.49 ± 0.1 | 3.66 ± 0.2 |  | 
47 | YTDYVATRWYRAPELLVGDTQYGS [CDKL4] | 2.56 ± 0.7 | 2.38 ± 0.34 |  | 
48 | YTGRAPNLDKMADNLLAAADKYAL [SPOPL] | 2.78 ± 0.42 | 3.06 ± 0.5 |  | 
49 | YVLKYMESNAAQYSPEALASIQNH [EFHC1] | 2.31 ± 0.14 | 2.35 ± 0.24 |  | 
50 | YYTMDPTQHVNNWMKHNVADSQIT [PTPRD] | 2.95 ± 0.31 | 2.93 ± 0.5 |  | 
